This is an account of results in patent publication US20180094062A1 (Hoffmann-La Roche, published 2018).

For assay [1], the target named is T1, human recombinant HER3 Extracellular Domain (HER3 ECD) (human, UniProt P21860 20-643).
T1 construct: 68 kDa; also called human-Her3-ECD
The assay is described as follows: SPR Biacore T100, antibody captured, 25 C.

Assay [2] deals with T2, human Heregulin fragment (HRG) (human).
T2 construct: a 44 kDa homodimeric protein, expressed in FreeStyle 293-F cells; also called Heregulin beta (HRG)
T2 chain: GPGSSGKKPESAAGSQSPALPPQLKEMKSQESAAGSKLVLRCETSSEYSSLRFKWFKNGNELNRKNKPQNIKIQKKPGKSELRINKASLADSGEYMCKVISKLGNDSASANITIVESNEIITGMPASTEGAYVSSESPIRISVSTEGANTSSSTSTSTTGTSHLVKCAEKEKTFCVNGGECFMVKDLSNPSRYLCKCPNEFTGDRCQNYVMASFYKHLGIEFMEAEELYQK
As to the kind of experiment: SPR Biacore T100, antibody captured, 25 C.

In assay [3] the target is T3, HER4 ECD-HRG complex (Heregulin-complexed Her-4 ECD) (human, UniProt Q15303 26-651).
T3 construct: Her-4 ECD incubated with a 5-fold molar excess of Heregulin
T3 sequence 1: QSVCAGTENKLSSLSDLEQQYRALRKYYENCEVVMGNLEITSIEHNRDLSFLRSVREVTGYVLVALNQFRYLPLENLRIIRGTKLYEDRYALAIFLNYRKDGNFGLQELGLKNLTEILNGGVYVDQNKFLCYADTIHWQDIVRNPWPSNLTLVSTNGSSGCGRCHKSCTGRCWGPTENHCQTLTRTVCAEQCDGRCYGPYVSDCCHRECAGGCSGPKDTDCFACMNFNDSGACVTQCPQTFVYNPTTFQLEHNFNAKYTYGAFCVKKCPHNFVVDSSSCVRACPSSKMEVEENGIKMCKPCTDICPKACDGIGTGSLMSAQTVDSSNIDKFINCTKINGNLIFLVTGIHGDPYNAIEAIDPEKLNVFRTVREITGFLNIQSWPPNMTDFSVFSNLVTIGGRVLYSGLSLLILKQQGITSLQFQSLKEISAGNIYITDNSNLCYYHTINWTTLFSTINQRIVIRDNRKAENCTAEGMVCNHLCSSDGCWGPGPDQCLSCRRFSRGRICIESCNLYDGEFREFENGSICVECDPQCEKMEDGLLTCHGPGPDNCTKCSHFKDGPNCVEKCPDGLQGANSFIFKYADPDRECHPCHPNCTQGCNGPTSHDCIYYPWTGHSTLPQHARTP
T3 sequence 2: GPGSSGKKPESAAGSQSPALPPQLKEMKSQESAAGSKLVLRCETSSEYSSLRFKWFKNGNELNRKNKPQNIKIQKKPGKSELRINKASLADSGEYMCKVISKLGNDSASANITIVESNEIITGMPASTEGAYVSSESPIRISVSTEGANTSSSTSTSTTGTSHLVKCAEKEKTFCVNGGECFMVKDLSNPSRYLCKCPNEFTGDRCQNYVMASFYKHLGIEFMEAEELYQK
The assay is described as follows: SPR Biacore T100, antibody captured, 25 C.

For assay [4], the target named is T4, recombinant Thermus thermophilus SlyD FKBP-Her3 (TtSlyD-FKBP-Her3).
T4 construct: expressed in E. coli, the N-terminal methionine can be present or not; also called thermo SlyD-Her3; T.T.SlyD-Her3
T4 chain: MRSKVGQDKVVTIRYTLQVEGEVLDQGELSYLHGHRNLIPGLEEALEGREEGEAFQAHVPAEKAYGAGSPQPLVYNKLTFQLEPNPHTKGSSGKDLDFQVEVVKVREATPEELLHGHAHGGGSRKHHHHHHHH
As to the kind of experiment: SPR Biacore T100, antibody captured, 25 C.

Assay [5] concerns the target T5, HER1 (EGFR) ECD peptide hairpin, overlapping immobilized 15-mer peptides (human, UniProt P00533 265-283, limits assumed).
T5 construct: domain: peptide hairpin (β-hairpin); CelluSpots 15-mer library; cysteines replaced by serines; also called hairpin motive in EGFR
T5 peptide (looked up): PPLMLYNPTTYQMDVNPEG
As to the kind of experiment: CelluSpots array of overlapping 15-mer peptides.

Assay [6] concerns the target T6, HER2 ECD peptide hairpin, overlapping immobilized 15-mer peptides (human, UniProt P04626 269-287, limits assumed).
T6 construct: domain: peptide hairpin (β-hairpin); CelluSpots 15-mer library; cysteines replaced by serines; also called hairpin motive in the HER2 ECD
T6 peptide (looked up): PALVTYNTDTFESMPNPEG
The assay is described as follows: CelluSpots array of overlapping 15-mer peptides.

Assay [7] deals with T7, HER4 ECD peptide hairpin (β-hairpin of HER4), overlapping immobilized 15-mer peptides (human).
T7 construct: CelluSpots library of 15-mers as for HER3; cysteines replaced by serines; also called HER4 β-hairpin
T7 peptide: PQTFVYNPTTFQLEHNFNA
As to the kind of experiment: CelluSpots array of overlapping 15-mer peptides of the HER family hairpins, chemiluminescence.

Assay [8] concerns the target T8, HER3 ECD-HRG complex (Heregulin-activated Her-3 ECD) (human, UniProt P21860 20-643).
T8 construct: receptor-ligand complex made by preincubating HER3 ECD with a five-fold molar excess of Heregulin; also called Heregulin/Her-3 ECD; Heregulin-complexed Her-3 ECD
The assay is described as follows: SPR Biacore 3000, antibody captured, Biacore two-state model, ka1, 25 C; ka1, first step of the two-state fit. As for the experimental part:
(§1) A CM5 series sensor was mounted into the system and was normalized in HBS-ET buffer (10 mM HEPES pH 7.4, 150 mM NaCl, 3 mM EDTA, 0.005% w/v Tween 20) according to the manufacturer's instructions. The sample buffer was the system buffer supplemented with 1 mg/ml CMD (Carboxymethyldextran). The system operated at 25° C. 10000 RU RAM-Fey (relative units of Fey-fragment Rabbit Anti-Mouse IgG/Jackson Laboratories) were immobilized according to the manufacturer's instructions using EDC/NHS chemistry on all flow cells. The sensor was deactivated using 1M ethanolamine.

For assay [9], the target named is T8, HER3 ECD-HRG complex …. As to the kind of experiment: SPR Biacore 3000, antibody captured, Biacore two-state model, kd1, 25 C; kd1, first step of the two-state fit; not the kd2 used for KDapp. As for the experimental part: as §1
In assay [10] the target is T8, HER3 ECD-HRG complex …. The assay is described as follows: SPR Biacore 3000, antibody captured, Biacore two-state model, apparent KD from ka1 and kd2, 25 C; apparent KD of the two-state model, kd2 / ka1. The procedure: as §1

B1: anti-HER3 antibody M-08-11 (antibody, V domains shown)
VH: QAYLQQSGAELMRPGASVRMSCQASGYTFTSYTIHWLKQTPRQGLEWIGAIYPRNGDFSYNQKFKDKASLTVDTSSSTAYMHLSSLTSEDSAVYFCARTINYGDWFAYWGQGTLVTVSA
VL: DIQMIQSPASLFVSEGETVIITCRASENIYSNLAWYHQKKGKSPQVLVYAAIKLADGVPLRFSGSGSGTQFSLKINSLQSEDFGSYYCQHFWGPPYTFGSGTNLEIK
notes: mouse monoclonal antibody from hybridoma, tested as hybridoma supernatant or as antibody; also called M-011
For B1, the results for the “MR (Molar Ratio)” value in [1] and in [4] were 0.5 and 1.4, respectively. Also, the binding result is “no binding (tested: 90 nM)” in assay [2]; “no binding (tested: 90 nM)” in assay [3]; “no binding (tested: 1 µg/mL)” in assay [5]; “no binding (tested: 1 µg/mL)” in [6]; “no binding” in [7]. The molecule further displayed a kon in assay [8] of 45800 M⁻¹ s⁻¹. In addition, in assay [9], the koff was 0.0502 s⁻¹. The Kd in assay [10] was 18 nM.
